Test results from patent publication US20190153059A1 (ADEPTHERA, published 2019).
Like-named read-outs stand apart in the source and are kept apart here.

Tests used:
Assay in all cases: cell-based or functional assay
[1] = target: T1, type 1 angiotensin II receptor AGTR1 (UniProt P30556 1-359, limits assumed)
T1 sequence (looked up): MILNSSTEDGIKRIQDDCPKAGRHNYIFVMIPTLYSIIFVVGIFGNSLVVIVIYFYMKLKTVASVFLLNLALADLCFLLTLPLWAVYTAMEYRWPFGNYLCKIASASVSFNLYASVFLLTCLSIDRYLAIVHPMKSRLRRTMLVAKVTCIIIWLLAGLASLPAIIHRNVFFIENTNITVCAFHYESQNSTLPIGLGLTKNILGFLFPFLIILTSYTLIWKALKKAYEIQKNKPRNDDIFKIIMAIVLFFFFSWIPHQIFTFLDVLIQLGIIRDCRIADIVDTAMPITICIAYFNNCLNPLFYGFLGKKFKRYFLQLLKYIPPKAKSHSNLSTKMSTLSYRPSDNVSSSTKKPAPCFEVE

CLR/RAMP2 receptor = CLR/RAMP2 receptor (UniProt Q16602 23-461; O60895 43-175, limits assumed)
CLR/RAMP1 receptor = CLR/RAMP1 receptor (UniProt Q16602 23-461; O60894 27-148, limits assumed)
[2] = target: T1, type 1 angiotensin II receptor AGTR1; remark: listed apart in the source

CLR/RAMP2 receptor, sequence (Q16602 23-461 limits assumed, chain 1 of 2): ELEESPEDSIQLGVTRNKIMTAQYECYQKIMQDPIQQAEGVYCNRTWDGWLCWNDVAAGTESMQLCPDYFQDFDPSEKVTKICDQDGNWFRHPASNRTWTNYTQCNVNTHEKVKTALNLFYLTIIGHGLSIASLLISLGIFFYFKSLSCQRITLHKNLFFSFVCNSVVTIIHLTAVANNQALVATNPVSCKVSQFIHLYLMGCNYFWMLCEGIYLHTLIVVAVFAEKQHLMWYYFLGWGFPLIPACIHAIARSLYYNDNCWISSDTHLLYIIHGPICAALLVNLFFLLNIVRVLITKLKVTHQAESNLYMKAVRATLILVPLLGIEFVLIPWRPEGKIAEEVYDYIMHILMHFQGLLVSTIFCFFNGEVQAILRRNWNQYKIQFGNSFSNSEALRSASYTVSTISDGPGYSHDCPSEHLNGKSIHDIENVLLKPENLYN
CLR/RAMP2 receptor, sequence (O60895 43-175 limits assumed, chain 2 of 2): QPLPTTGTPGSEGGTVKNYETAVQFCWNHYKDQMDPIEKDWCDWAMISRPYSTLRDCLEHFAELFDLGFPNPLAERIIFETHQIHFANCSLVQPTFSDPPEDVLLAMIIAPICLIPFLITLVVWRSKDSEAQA
CLR/RAMP1 receptor, sequence (Q16602 23-461 limits assumed, chain 1 of 2): as the sequence (Q16602 23-461 limits assumed, chain 1 of 2) above
CLR/RAMP1 receptor, sequence (O60894 27-148 limits assumed, chain 2 of 2): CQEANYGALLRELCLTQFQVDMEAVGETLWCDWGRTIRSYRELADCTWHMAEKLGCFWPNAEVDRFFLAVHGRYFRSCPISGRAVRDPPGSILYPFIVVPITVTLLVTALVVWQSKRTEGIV

AGTR1 IC50 (calcium flux assay) [1]: 19.9 nM
CLR/RAMP2 EC50 (CLR/RAMP2 receptor): 1 nM
CLR/RAMP2 Max Activity (CLR/RAMP2 receptor): 86 % of positive controls
CLR/RAMP1 EC50 (CLR/RAMP1 receptor): 0.3 nM
CLR/RAMP1 Max Activity (CLR/RAMP1 receptor): 132 % of positive controls
AGTR1 IC50 (calcium flux assay) [2]: 20 nM
Binder: RVYVHPAKGCRFGTCTVQKLAHQIYQFTDKDVAPRSKISPQGY (Sar at N-terminus (Sar-RVYVHPA); miniPEG before K(PAL); K(PAL); -NH2) [AGTR1 antagonist/CLR/RAMP agonist MRL (SEQ ID NO: 234)]
